Molecular target: Atg16 (human (endogenous in HCT116 and H1299)) (UniProt Q676U5)
Test: co-IP; lysates of HCT116/Shnon and HCT116/ShASPP1 cells (also H1299 with ASPP1 knock-down, Supplementary Figure 3B) immunoprecipitated with anti-Atg16 antibody; co-precipitated proteins detected by western blot

Sequence of UniProt Q676U5 (Q676U5 whole entry): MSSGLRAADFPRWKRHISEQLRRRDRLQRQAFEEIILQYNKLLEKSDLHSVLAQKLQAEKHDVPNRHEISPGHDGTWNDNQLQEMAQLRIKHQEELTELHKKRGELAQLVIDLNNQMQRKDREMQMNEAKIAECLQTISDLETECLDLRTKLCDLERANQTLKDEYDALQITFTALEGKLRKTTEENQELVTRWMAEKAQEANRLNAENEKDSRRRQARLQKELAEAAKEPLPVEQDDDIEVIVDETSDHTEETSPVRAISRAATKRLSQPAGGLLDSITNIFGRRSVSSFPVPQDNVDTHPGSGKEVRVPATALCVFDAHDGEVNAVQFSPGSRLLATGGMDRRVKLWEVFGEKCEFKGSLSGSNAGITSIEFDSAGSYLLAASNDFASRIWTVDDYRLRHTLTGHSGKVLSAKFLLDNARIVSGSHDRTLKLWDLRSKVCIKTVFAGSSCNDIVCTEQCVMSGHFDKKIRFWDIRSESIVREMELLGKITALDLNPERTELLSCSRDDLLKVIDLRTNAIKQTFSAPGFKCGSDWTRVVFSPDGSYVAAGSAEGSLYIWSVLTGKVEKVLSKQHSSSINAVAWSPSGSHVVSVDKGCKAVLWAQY

fold increase of Atg5–Atg12 in the Atg16 immunoprecipitate, ASPP1 knock-down against control cells (H1299): 2 fold
fold increase of Atg5–Atg12 in the Atg16 immunoprecipitate, ASPP1 knock-down against control cells (HCT116): 2 fold
Substance: Atg5–Atg12 conjugate (from UniProt Q9H1Y0 1-275; O94817 1-140) (complex)
